Reference: patent US20030044809A1, “Nucleic acid binding of multi-zinc finger transcription factors” (published 2003)

B1: FLAG-tagged SIP1 (other, mouse, UniProt Q9R0G7 1-1214, looked up)
chain: MKQPIMADGPRCKRRKQANPRRKNVVNYDNVVDAGSETDEEDKLHIAEDDSLANPLDQDTSPASMPNHESSPHMSQGLLPREEEEEELRESVVEHSWHSGEILQASVAGPEEMKEDYDAMGPEATIQTTINNGTVKNANCTSDFEEYFAKRKLEERDGHAVSIEEYLQRSDTAIIYPEAPEELSRLGTPEANGQEENDLPPGTPDAFAQLLTCPYCDRGYKRLTSLKEHIKYRHEKNEENFSCPLCSYTFAYRTQLERHMVTHKPGTDQHQMLTQGAGNRKFKCTECGKAFKYKHHLKEHLRIHSGEKPYECPNCKKRFSHSGSYSSHISSKKCIGLISVNGRMRNNIKTGSSPNSVSSSPTNSAITQLRNKLENGKPLSMSEQTGLLKIKTEPLDFNDYKVLMATHGFSGSSPFMNGGLGATSPLGVHPSAQSPMQHLGVGMEAPLLGFPTMNSNLSEVQKVLQIVDNTVSRQKMDCKTEDISKLKGYHMKDPCSQPEEQGVTSPNIPPVGLPVVSHNGATKSIIDYTLEKVNEAKACLQSLTTDSRRQISNIKKEKLRTLIDLVTDDKMIENHSISTPFSCQFCKESFPGPIPLHQHERYLCKMNEEIKAVLQPHENIVPNKAGVFVDNKALLLSSVLSEKGLTSPINPYKDHMSVLKAYYAMNMEPNSDELLKISIAVGLPQEFVKEWFEQRKVYQYSNSRSPSLERTSKPLAPNSNPTTKDSLLPRSPVKPMDSITSPSIAELHNSVTSCDPPLRLTKSSHFTNIKAVDKLDHSRSNTPSPLNLSSTSSKNSHSSSYTPNSFSSEELQAEPLDLSLPKQMREPKGIIATKNKTKATSINLDHNSVSSSSENSDEPLNLTFIKKEFSNSNNLDNKSNNPVFGMNPFSAKPLYTPLPPQSAFPPATFMPPVQTSIPGLRPYPGLDQMSFLPHMAYTYPTGAATFADMQQRRKYQRKQGFQGDLLDGAQDYMSGLDDMTDSDSCLSRKKIKKTESGMYACDLCDKTFQKSSSLLRHKYEHTGKRPHQCQICKKAFKHKHHLIEHSRLHSGEKPYQCDKCGKRFSHSGSYSQHMNHRYSYCKREAEEREAAEREAREKGHLEPTELLMNRAYLQSITPQGYSDSEERESMPRDGESEKEHEKEGEEGYGKLRRRDGDEEEEEEEEESENKSMDTDPETIRDEEETGDHSMDDSSEDGKMETKSDHEEDNMEDGM
notes: range 1-1214; Produced in COS1 cells from pCDNA3; tested in total cell extract; also called FLAG-tagged SIP1FS; pCDNA3-SIP1 (Flag-tagged); not shown: FLAG tag at the N-terminus
B2: Myc-tagged full size SIP1 (SIP1FS) (other, mouse, UniProt Q9R0G7 1-1214, looked up)
chain: MKQPIMADGPRCKRRKQANPRRKNVVNYDNVVDAGSETDEEDKLHIAEDDSLANPLDQDTSPASMPNHESSPHMSQGLLPREEEEEELRESVVEHSWHSGEILQASVAGPEEMKEDYDAMGPEATIQTTINNGTVKNANCTSDFEEYFAKRKLEERDGHAVSIEEYLQRSDTAIIYPEAPEELSRLGTPEANGQEENDLPPGTPDAFAQLLTCPYCDRGYKRLTSLKEHIKYRHEKNEENFSCPLCSYTFAYRTQLERHMVTHKPGTDQHQMLTQGAGNRKFKCTECGKAFKYKHHLKEHLRIHSGEKPYECPNCKKRFSHSGSYSSHISSKKCIGLISVNGRMRNNIKTGSSPNSVSSSPTNSAITQLRNKLENGKPLSMSEQTGLLKIKTEPLDFNDYKVLMATHGFSGSSPFMNGGLGATSPLGVHPSAQSPMQHLGVGMEAPLLGFPTMNSNLSEVQKVLQIVDNTVSRQKMDCKTEDISKLKGYHMKDPCSQPEEQGVTSPNIPPVGLPVVSHNGATKSIIDYTLEKVNEAKACLQSLTTDSRRQISNIKKEKLRTLIDLVTDDKMIENHSISTPFSCQFCKESFPGPIPLHQHERYLCKMNEEIKAVLQPHENIVPNKAGVFVDNKALLLSSVLSEKGLTSPINPYKDHMSVLKAYYAMNMEPNSDELLKISIAVGLPQEFVKEWFEQRKVYQYSNSRSPSLERTSKPLAPNSNPTTKDSLLPRSPVKPMDSITSPSIAELHNSVTSCDPPLRLTKSSHFTNIKAVDKLDHSRSNTPSPLNLSSTSSKNSHSSSYTPNSFSSEELQAEPLDLSLPKQMREPKGIIATKNKTKATSINLDHNSVSSSSENSDEPLNLTFIKKEFSNSNNLDNKSNNPVFGMNPFSAKPLYTPLPPQSAFPPATFMPPVQTSIPGLRPYPGLDQMSFLPHMAYTYPTGAATFADMQQRRKYQRKQGFQGDLLDGAQDYMSGLDDMTDSDSCLSRKKIKKTESGMYACDLCDKTFQKSSSLLRHKYEHTGKRPHQCQICKKAFKHKHHLIEHSRLHSGEKPYQCDKCGKRFSHSGSYSQHMNHRYSYCKREAEEREAAEREAREKGHLEPTELLMNRAYLQSITPQGYSDSEERESMPRDGESEKEHEKEGEEGYGKLRRRDGDEEEEEEEEESENKSMDTDPETIRDEEETGDHSMDDSSEDGKMETKSDHEEDNMEDGM
notes: range 1-1214; Produced in COS1 cells from pCS3; tested in total cell extract; also called Myc-tagged SIP1; WT SIP1; not shown: (Myc)6 tag of pCS3 at the N-terminus

Assays:
[1] = test system: SIP1 full size in cells (mouse); experiment: cell_activity; conditions: luciferase reporter; derepressed by E-box mutations
[2] = biological target: B2; experiment: EMSA double supershift with anti-Myc and anti-FLAG antibodies, Xbra-WT probe
Procedure: For supershift experiments, the extracts were incubated with anti-Myc (Santa Cruz) or anti-FLAG (Kodak) antibodies. For competition, an excess of unlabeled double-stranded oligonucleotides was added together with the labeled probe. The binding reaction was loaded onto a 4% polyacrylamide gel (acrylamide/bis-acrylamide, 19:1) prepared in 0.5XTBE buffer. Following electrophoresis, gels were dried, and exposed to X-Ray film. All experiments were repeated at least three times.
To address this experimentally, we used a combination of differently tagged SIP1 in supershift experiments in EMSAs. […] The SIP1 complex generated with Myc-tagged SIP1 has a slightly slower migration than the FLAG-tagged complex (the Myc-tag is longer than the FLAG-tag). […] Using an anti-FLAG antibody, only the lower part of the complex corresponding to FLAG-tagged SIP1 is super-shifted, whereas about 50% of the radioactivity remains within the Myc-tagged SIP1 complex. […] Conversely, incubating the extract with an anti-Myc antibody super-shifted only the […] part of the complex corresponding to Myc-tagged SIP1 whereas 50% of the radioactivity is retained within the FLAG-tagged SIP1 complex. […] However, we detected no other super-shifted band corresponding to a potential double super-shift, viz. super-shifted with both anti-Myc- and anti-FLAG-antibodies.

FLAG-tagged SIP1 = biological target: B1; experiment: immunoprecipitation with anti-Myc antibody, detection with anti-FLAG antibody
Procedure: Transfected cells were washed with PBS-O (137 mM NaCl, 2.7 mM KCl, 6.5 mM Na₂HPO₄, 1.5 mM KH₂PO₄), collected in detachment buffer (10 mM Tris pH7.5, 1 mM EDTA, 10% glycerol, with protease inhibitors (Protease inhibitor Cocktail tablets, Boehringer Mannheim)) and pelleted by low spin centrifugation. The cells were then solubilized in 10 mM Tris, pH 7.4, 125 mM NaCl, 1% Triton X-100. For direct electrophoretic analysis, gel sample buffer was added to the cell lysates and the samples were boiled. For other experiments, lysates were first subjected to immunoprecipitation with either anti-Myc or anti-FLAG antibodies. Antibodies were added to aliquots of the cell lysates, which were incubated overnight at 4° C. The antibodies and the bound protein(s) of the cell lysate were coupled as a complex to protein A-Sepharose for 2 hours at 4° C. The immunoprecipitates were washed 4 times in NET buffer (50 mM Tris pH 8.0, 150 mM NaCl, 0.1% NP40, 1 mM EDTA, 0.25% gelatin), resolved by SDS-polyacrylamide (7.5%) gel electrophoresis, and electrophoretically transferred to nitrocellulose membranes. […] Immunoreactive bands were detected with an enhanced chemiluminescence reagent (NEN). […]

Molecule: E-cadherin promoter reporter
- activity (% decrease of promoter activity) [1]: 80

Molecule: B1
- binding result [2]: no binding

Molecule: B2
- binding result (FLAG-tagged SIP1): no binding
